From EP4671273A1 (Anaveon AG, dated 2025)

How the values were obtained:
[1] = target: human IL-21 receptor (IL-21R) on cells (human, UniProt Q9HBE5 20-538; P31785 23-369); assay: cell-based or functional assay
[2] = target: T1, human PD-1 (#PD1-H82E4, AcroBiosystems) (human, UniProt Q15116 25-167); assay: SPR, PD-1 on captured IgG1
T1 construct: bought

[3] = target: T2, cynomolgus PD-1 (#PD1-C52H5, AcroBiosystems) (cynomolgus monkey, UniProt B0LAJ3 25-170); assay: SPR, PD-1 on captured IgG1
T2 construct: bought; also called cynomolgus monkey PD-1; not shown: the vendor's tag on the recombinant protein (AcroBiosystems #PD1-C52H5)
T2 sequence (B0LAJ3 entry or part of it limits assumed, form in doubt): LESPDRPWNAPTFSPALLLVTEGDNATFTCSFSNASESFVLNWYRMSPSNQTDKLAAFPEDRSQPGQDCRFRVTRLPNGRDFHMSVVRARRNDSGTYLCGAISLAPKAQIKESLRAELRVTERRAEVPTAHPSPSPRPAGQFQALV

T1 sequence (Q15116 25-167 limits assumed): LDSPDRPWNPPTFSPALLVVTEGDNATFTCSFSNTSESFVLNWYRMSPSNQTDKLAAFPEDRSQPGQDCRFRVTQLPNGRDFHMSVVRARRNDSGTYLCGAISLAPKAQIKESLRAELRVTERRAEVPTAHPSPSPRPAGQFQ
human IL-21 receptor (IL-21R) on cells, sequence (Q9HBE5 20-538, chain 1 of 2): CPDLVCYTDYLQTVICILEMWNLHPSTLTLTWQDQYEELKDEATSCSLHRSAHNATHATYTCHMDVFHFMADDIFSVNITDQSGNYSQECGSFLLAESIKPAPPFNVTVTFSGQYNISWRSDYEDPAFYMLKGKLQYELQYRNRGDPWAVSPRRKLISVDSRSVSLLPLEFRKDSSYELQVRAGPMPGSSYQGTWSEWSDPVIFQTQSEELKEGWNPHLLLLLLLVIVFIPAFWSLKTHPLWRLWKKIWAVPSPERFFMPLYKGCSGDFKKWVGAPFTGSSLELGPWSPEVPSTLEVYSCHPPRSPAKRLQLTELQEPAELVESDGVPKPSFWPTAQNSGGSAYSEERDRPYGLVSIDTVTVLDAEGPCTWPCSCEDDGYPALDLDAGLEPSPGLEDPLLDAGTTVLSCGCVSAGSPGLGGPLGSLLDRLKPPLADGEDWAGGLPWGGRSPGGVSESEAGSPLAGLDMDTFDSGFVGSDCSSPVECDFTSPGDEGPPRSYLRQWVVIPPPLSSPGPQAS
human IL-21 receptor (IL-21R) on cells, sequence (P31785 23-369, chain 2 of 2): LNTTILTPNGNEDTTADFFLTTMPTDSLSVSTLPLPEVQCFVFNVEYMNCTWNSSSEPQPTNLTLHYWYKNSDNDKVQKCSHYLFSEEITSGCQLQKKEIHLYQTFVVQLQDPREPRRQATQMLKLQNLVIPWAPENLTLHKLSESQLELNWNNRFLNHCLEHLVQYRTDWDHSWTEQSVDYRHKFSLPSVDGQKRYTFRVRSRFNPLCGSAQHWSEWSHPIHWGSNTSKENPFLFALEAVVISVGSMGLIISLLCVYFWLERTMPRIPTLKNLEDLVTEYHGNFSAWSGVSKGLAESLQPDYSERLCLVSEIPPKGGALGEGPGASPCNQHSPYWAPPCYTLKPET

Binder | EC50B, pSTAT3+ Jurkat PD-1 cells, PD-1 blocked [1] [nM] | EC50NB, pSTAT3+ Jurkat PD-1 cells [1] [nM] | Kd [2] [pM] | koff [2] [s⁻¹] | kon [2] [M⁻¹ s⁻¹] | Kd [3] [pM] | koff [3] [s⁻¹] | kon [3] [M⁻¹ s⁻¹]
EFY288 (bispecific antibody, human IgG1, kappa, lambda, L234A L235A) heavy 1: EVQLLESGGGLVQPGGSLRLSCAASGFTFSINAMTWVRQAPGKGLEWVSTISGSGFSTYYADSLKGRFTISRDNSKNTLYLQMNSLRAEDTAVYYCAKEVYGDYWGQGTLVTVSSASTKGPSVFPLAPSSKSTSGGTAALGCLVKDYFPEPVTVSWNSGALTSGVHTFPAVLQSSGLYSLSSVVTVPSSSLGTQTYICNVNHKPSNTKVDKRVEPKSCDKTHTCPPCPAPEAAGGPSVFLFPPKPKDTLMISRTPEVTCVVVDVSHEDPEVKFNWYVDGVEVHNAKTKPREEQYNSTYRVVSVLTVLHQDWLNGKEYKCKVSNKALAAPIEKTISKAKGQPREPQVCTLPPSREEMTKNQVSLSCAVKGFYPSDIAVEWESNGQPENNYKTTPPVLDSDGSFFLVSKLTVDKSRWQQGNVFSCSVMHEALHNHYTQKSLSLSPGK light 1: not shown heavy 2: QVQLQESGPGLVKPSETLSLTCTVSGGSISSDYWGWIRQPPGKGLEWIGYISYRGSTNYNPSLKSRVTISVDTSRNQFSLKLSSVTAADTAVYYCARSAGVTDFDAWGQGTLVTVSSASTKGPSVFPLAPSSKSTSGGTAALGCLVKDYFPEPVTVSWNSGALTSGVHTFPAVLQSSGLYSLSSVVTVPSSSLGTQTYICNVNHKPSNTKVDKRVEPKSCDKTHTCPPCPAPEAAGGPSVFLFPPKPKDTLMISRTPEVTCVVVDVSHEDPEVKFNWYVDGVEVHNAKTKPREEQYNSTYRVVSVLTVLHQDWLNGKEYKCKVSNKALAAPIEKTISKAKGQPREPQVYTLPPCREEMTKNQVSLWCLVKGFYPSDIAVEWESNGQPENNYKTTPPVLDSDGSFFLYSKLTVDKSRWQQGNVFSCSVMHEALHNHYTQKSLSLSPGK light 2: not shown | 0.234 | 0.129 | – | – | – | – | – | –
CHU368 (bispecific antibody, human IgG1, kappa, lambda, L234A L235A) heavy 1: EVQLLESGGGLVQPGGSLRLSCAASGFTFSINAMTWVRQAPGKGLEWVSTISGSGFSTYYADSLKGRFTISRDNSKNTLYLQMNSLRAEDTAVYYCAKEVYGDYWGQGTLVTVSSASTKGPSVFPLAPSSKSTSGGTAALGCLVKDYFPEPVTVSWNSGALTSGVHTFPAVLQSSGLYSLSSVVTVPSSSLGTQTYICNVNHKPSNTKVDKRVEPKSCDKTHTCPPCPAPEAAGGPSVFLFPPKPKDTLMISRTPEVTCVVVDVSHEDPEVKFNWYVDGVEVHNAKTKPREEQYNSTYRVVSVLTVLHQDWLNGKEYKCKVSNKALAAPIEKTISKAKGQPREPQVCTLPPSREEMTKNQVSLSCAVKGFYPSDIAVEWESNGQPENNYKTTPPVLDSDGSFFLVSKLTVDKSRWQQGNVFSCSVMHEALHNHYTQKSLSLSPGK light 1: not shown heavy 2: QVQLQESGPGLVKPSETLSLTCTVSGGSISSDYWGWIRQPPGKGLEWIGYISYRGSTNYNPSLKSRVTISVDTSRNQFSLKLSSVTAADTAVYYCARSAGVTDFDAWGQGTLVTVSSASTKGPSVFPLAPSSKSTSGGTAALGCLVKDYFPEPVTVSWNSGALTSGVHTFPAVLQSSGLYSLSSVVTVPSSSLGTQTYICNVNHKPSNTKVDKRVEPKSCDKTHTCPPCPAPEAAGGPSVFLFPPKPKDTLMISRTPEVTCVVVDVSHEDPEVKFNWYVDGVEVHNAKTKPREEQYNSTYRVVSVLTVLHQDWLNGKEYKCKVSNKALAAPIEKTISKAKGQPREPQVYTLPPCREEMTKNQVSLWCLVKGFYPSDIAVEWESNGQPENNYKTTPPVLDSDGSFFLYSKLTVDKSRWQQGNVFSCSVMHEALHNHYTQKSLSLSPGK light 2: not shown | 2.16 | 0.583 | – | – | – | – | – | –
JOH712 (antibody, human IgG1, V domains shown, human IgG1) VH: EVQLLESGGGLVQPGGSLRLSCAASGFTFSINAMTWVRQAPGKGLEWVSTISGSGFSTYYADSLKGRFTISRDNSKNTLYLQMNSLRAEDTAVYYCAKEVYGDYWGQGTLVTVSS VL: RSVLTQPPSASGTPGQRVSISCSGASSNIGSQSVFWYQQHPGTAPKLLIYSNNQRPSGVPDRFSGSKSGTSASLAISGLRSEDEADYYCAAWDDSLSIWVFGGGTKLTVL | – | – | 546 | 8.88e-05 | 163000 | 1110 | 0.000252 | 227000
KWH245 (antibody, human IgG1, V domains shown, human IgG1) VH: EVQLLESGGGLVQPGGSLRLSCAASGFTFSINAMTWVRQAPGKGLEWVSTISGSGFSTYYADSLKGRFTISRDNSKNTLYLQMNSLRAEDTAVYYCAKEVYGDYWGQGTLVTVSS VL: RSVLTQPPSASGTPGQRVSISCSGASSNIGSQSVFTYQQLPGTAPKLLIYSNNQRPSGVPDRFSGSKSGTSASLAISGLRSEDEADYYCAAWDDSLSIWVFGGGTKLTVL | – | – | 183 | 0.000305 | 1.67e+06 | 2290 | 0.000644 | 281000
KOW427 (antibody, human IgG1, V domains shown, human IgG1) VH: EVQLLESGGGLVQPGGSLRLSCAASGFTFSINAMTWVRQAPGKGLEWVSTISGSGFSTYYADSLKGRFTISRDNSKNTLYLQMNSLRAEDTAVYYCAKEVYGDYWGQGTLVTVSS VL: RSVLTQPPSASGTPGQRVSISCSGASSNIGSQSVFWYQQLPGTAPKLGIYSNNQRPSGVPDRFSGSKSGTSASLAISGLRSEDEADYYCAAWDDSLSIWVFGGGTKLTVL | – | – | 586 | 7.97e-05 | 136000 | 1270 | 0.000296 | 233000
NWL270 (antibody, human IgG1, V domains shown, human IgG1) VH: EVQLLESGGGLVQPGGSLRLSCAASGFTFSINAMTWVRQAPGKGLEWVSTISGSGFSTYYADSLKGRFTISRDNSKNTLYLQMNSLRAEDTAVYYCAKEVYGDYWGQGTLVTVSS VL: RSVLTQPPSASGTPGQRVSISCSGASSNIGSQSVFWYQQLPGTAPKLLIYSNNQRPSGVPDRFSGSKSGTSASLAISGLRSEDEADYYCAAWDDSLSNWVFGGGTKLTVL | – | – | 229 | 9.82e-05 | 429000 | 949 | 0.00015 | 158000
KYC847 (antibody, human IgG1, V domains shown, human IgG1) VH: EVQLLESGGGLVQPGGSLRLSCAASGFTFSINAMTWVRQAPGKGLEWVSTISGSGFSTYYADSLKGRFTISRDNSKNTLYLQMNSLRAEDTAVYYCAKEVYGDYWGQGTLVTVSS VL: RSVLTQPPSASGTPGQRVSISCSGASSNIGSQSVFWYQQLPGTAPKLLIYSNNQRPSGVPDRFSGSKSGTSASLAISGLRSEDEADYYCAAWDDSLTIWVFGGGTKLTVL | – | – | 528 | 7.59e-05 | 144000 | 597 | 0.000139 | 233000
JZW468 (antibody, human IgG1, V domains shown, human IgG1) VH: EVQLLESGGGLVQPGGSLRLSCAASGFTFSINAMTWVRQAPGKGLEWVSTISGSGFSTYYADSLKGRFTISRDNSKNTLYLQMNSLRAEDTAVYYCAKEVYGDYWGQGTLVTVSS VL: RSVLTQPPSASGTPGQRVSISCSGASSNIGSQSVFWYQQLPGTAPKLLIYSNNQRPSGVPDRFSGSKSGTSASLAISGLRSEDEADYYCAAWDDQLSIWVFGGGTKLTVL | – | – | 631 | 9.2e-05 | 146000 | 959 | 0.00029 | 302000
SSR010 (antibody, human IgG1, V domains shown, human IgG1) VH: EVQLLESGGGLVQPGGSLRLSCAASGFTFSINAMTWVRQAPGKGLEWVSTISGSGFSTYYADSLKGRFTISRDNSKNTLYLQMNSLRAEDTAVYYCAKEVYGDYWGQGTLVTVSS VL: RSVLTQPPSASGTPGQRVSISCSGASSNVGSQSVFWYQQLPGTAPKLLIYSNNQRPSGVPDRFSGSKSGTSASLAISGLRSEDEADYYCAAWDDSLSIWVFGGGTKLTVL | – | – | 76.7 | 0.000199 | 2.6e+06 | 1140 | 0.000301 | 263000
